Laboratory results taken from article PMC6458996, “Sostdc1: A soluble BMP and Wnt antagonist that is induced by the interaction between myeloma cells and osteoblast lineage cells” (Bone, 2019).

B1: bone morphogenetic protein 7 (BMP7) (ligand, UniProt P18075 293-431, looked up)
chain: STGSKQRSQNRSKTPKNQEALRMANVAENSSSDQRQACKKHELYVSFRDLGWQDWIIAPEGYAAYYCEGECAFPLNSYMNATNHAIVQTLVHFINPETVPKPCCAPTQLNAISVLYFDDSSNVILKKYRNMVVRACGCH
notes: BMP7, recombinant protein; also called ligand BMP7 protein
B2: bone morphogenetic protein 2 (BMP2) (ligand, UniProt P12643 283-396, looked up)
chain: QAKHKQRKRLKSSCKRHPLYVDFSDVGWNDWIVAPPGYHAFYCHGECPFPLADHLNSTNHAIVQTLVNSVNSKIPKACCVPTELSAISMLYLDENEKVVLKNYQDMVVEGCGCR
notes: BMP2, recombinant protein; also called BMP2 ligand protein

Legend:
[1] = target: recombinant murine low density lipoprotein receptor-related protein 6 (LRP6) (mouse) (UniProt O88572); assay: BLI; Amine reactive 2nd generation (AR2G) biosensors (ForteBio, BLItz); analyte at multiple concentrations from 0 to 100 ug/ml; global fit to a simple 1:1 Langmuir model; which partner was immobilised is not stated outright (the legend speaks of 100 ug/ml of Sostdc1 binding to rmLRP6, BMP2 and BMP7)
Sequence of recombinant murine low density lipoprotein receptor-related protein 6 (LRP6) (mouse) (O88572 20-1613): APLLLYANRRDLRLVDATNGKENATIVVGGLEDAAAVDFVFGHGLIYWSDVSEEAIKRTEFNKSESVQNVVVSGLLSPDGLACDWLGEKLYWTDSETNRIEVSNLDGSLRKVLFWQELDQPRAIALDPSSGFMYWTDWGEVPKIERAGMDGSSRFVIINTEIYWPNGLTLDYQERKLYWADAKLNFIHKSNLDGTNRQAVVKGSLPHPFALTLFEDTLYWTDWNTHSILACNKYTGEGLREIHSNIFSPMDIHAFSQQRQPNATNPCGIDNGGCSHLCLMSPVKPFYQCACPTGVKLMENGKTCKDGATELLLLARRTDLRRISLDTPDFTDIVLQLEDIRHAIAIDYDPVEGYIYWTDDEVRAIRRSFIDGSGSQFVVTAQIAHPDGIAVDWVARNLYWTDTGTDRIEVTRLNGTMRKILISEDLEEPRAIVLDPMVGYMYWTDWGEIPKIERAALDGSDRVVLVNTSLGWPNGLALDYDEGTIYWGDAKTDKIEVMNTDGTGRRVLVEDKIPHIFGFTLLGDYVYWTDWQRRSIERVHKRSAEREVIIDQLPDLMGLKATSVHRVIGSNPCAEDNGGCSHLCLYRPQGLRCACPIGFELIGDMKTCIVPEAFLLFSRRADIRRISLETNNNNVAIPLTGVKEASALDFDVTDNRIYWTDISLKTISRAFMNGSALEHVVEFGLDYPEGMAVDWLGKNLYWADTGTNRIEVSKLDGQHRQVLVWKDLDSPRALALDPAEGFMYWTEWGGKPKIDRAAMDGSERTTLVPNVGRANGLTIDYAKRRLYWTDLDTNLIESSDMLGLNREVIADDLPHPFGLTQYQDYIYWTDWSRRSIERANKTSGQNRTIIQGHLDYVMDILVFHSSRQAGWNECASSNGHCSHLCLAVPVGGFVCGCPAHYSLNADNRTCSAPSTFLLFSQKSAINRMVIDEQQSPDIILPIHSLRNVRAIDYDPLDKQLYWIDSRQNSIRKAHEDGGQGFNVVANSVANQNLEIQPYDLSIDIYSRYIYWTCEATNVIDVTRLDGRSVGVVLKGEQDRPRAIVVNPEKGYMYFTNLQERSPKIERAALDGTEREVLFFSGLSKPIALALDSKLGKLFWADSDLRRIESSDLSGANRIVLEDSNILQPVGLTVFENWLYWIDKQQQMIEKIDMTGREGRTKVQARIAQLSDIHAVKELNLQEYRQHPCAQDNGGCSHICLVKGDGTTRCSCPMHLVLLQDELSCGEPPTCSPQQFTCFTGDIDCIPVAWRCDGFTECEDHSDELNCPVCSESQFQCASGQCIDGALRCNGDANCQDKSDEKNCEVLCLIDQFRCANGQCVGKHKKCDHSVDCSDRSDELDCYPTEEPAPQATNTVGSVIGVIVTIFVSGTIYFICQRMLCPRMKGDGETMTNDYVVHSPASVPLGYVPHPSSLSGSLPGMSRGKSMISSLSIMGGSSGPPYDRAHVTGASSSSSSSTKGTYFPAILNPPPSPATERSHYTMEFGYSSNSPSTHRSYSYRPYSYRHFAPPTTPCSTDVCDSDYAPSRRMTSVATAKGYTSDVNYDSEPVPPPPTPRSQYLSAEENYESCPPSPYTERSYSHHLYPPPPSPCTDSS

[2] = target: T1, recombinant murine Sostdc1 (sclerostin domain containing 1) (mouse, UniProt Q9CQN4 24-206); assay: as above; conditions: both partners purified
T1 construct: sclerostin domain containing 1 (Sostdc1), murine recombinant protein; also called recombinant Sostdc1; murine recombinant Sostdc1
T1 sequence (looked up): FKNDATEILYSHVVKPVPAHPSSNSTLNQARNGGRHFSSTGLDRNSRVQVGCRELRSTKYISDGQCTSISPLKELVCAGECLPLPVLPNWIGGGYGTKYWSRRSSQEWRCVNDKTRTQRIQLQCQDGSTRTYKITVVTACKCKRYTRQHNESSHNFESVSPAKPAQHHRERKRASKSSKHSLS

Row | Molecule | Kd [1] [nM] | Kd [2] [nM]
1 | recombinant murine Sostdc1 (sclerostin domain containing 1) (from UniProt Q9CQN4 24-206) (natural protein) | 0.85 | 
2 | B1 |  | < 0.001
3 | B2 |  | 9.57
